B1: MBP-SNX17 (full-length, wild-type) [not stated] / Peptide LRP1_(14mer) [modified: 5-FAM (5-carboxyfluorescein) on the N-terminus; 5-FAM (5-carboxyfluorescein) on the N-terminus] [not stated] (parent complex)
chain 1: MHFSIPETESRSGDSGGSAYVAYNIHVNGVLHCRVRYSQLLGLHEQLRKEYGANVLPAFPPKKLFSLTPAEVEQRREQLEKYMQAVRQDPLLGSSETFNSFLRRAQQETQQVPTEEVSLEVLLSNGQKVLVNVLTSDQTEDVLEAVAAKLDLPDDLIGYFSLFLVREKEDGAFSFVRKLQEFELPYVSVTSLRSQEYKIVLRKSYWDSAYDDDVMENRVGLNLLYAQTVSDIERGWILVTKEQHRQLKSLQEKVSKKEFLRLAQTLRHYGYLRFDACVADFPEKDCPVVVSAGNSELSLQLRLPGQQLREGSFRVTRMRCWRVTSSVPLPSGSTSSPGRGRGEVRLELAFEYLMSKDRLQWVTITSPQAIMMSICLQSMVDELMVKKSGGSIRKMLRRRVGGTLRRSDSQQAVKSPPLLESPDATRESMVKLSSKLSAVSLRGIGSPSTDASASDVHGNFAFEGIGDEDL
chain 2: MNVEIGNPTYKMYE

Variants of: B1
Assay: fluorescence anisotropy; 5-FAM-labeled LRP1 14-mer peptide

Question: For chain 1 N459A, chain 1 F462A, which Kd is on record?
Answer: Its Kd is 1500 nM.

Question: chain 1 H457A was tested. Which Kd did it give?
Answer: The Kd was 3800 nM.
